Test results published in the supplement of paper PMC10126150.
± gives the standard deviation of the averaged measurements.

These sequences were tested on ATP (assay: switch fluorescence ratio, 500 uM ATP over buffer (Cy3 cluster intensity, sum of 5 cycles each) (fold (ratio)); higher = stronger signal-on switching upon ATP binding; sequences stand for … in TCGTCGGCAGCGTCAGATGTGTATAAGAGACAGTTTTTTTTTTTTTTTTTTTTTTTTT…TC). Details: aptamer strand: ATP DNA aptamer (quencher-CACCTGGGGGAGTATTGCGGAGGAAGG + anchor), 100 nM annealed; ATP concentration: 500 uM.
How it was run: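 After annealing to 100 nM quencher-labelled ATP aptamer, Cy3-labelled switching-strand clusters on a modified Illumina MiSeq flow-cell were imaged in selection buffer. A second image followed after 15 min with 500 uM ATP at 22 °C, and five such buffer/ATP cycles were done, each separated by NaOH stripping and re-annealing. The fluorescence ratio, averaged per switch-domain sequence, is summed target-cycle over summed buffer-cycle Cy3 intensity per cluster, with clusters outside 100-1000 RFU excluded.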
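Also: ATP exposure 15 min at 22 °C before imaging.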

Sequence | switch fluorescence ratio
GACAGAGGGC | 0.96 ± 0.062
GACAGATGGT | 1.01 ± 0.019
GACAGGGGAG | 1 ± 0.018
GACAGTCAAA | 1.01 ± 0.04
GACATAGCGG | 1.07 ± 0.03
GACATATGGG | 0.967 ± 0.035
GACATGGGAT | 1.01 ± 0.037
GACATTAAGG | 1.01 ± 0.084
GACATTTCGT | 0.992 ± 0.019
GACCATACGC | 1.42 ± 0.055
GACCATTGGA | 1.006 ± 0.0011
GACCATTTGT | 0.995 ± 0.033
GACCATTTTT | 1.02 ± 0.038
GACCCGCTTG | 1.06 ± 0.013
GACCCGGGTG | 2.98 ± 0.18
GACCCGGGTT | 1.11 ± 0.15
GACCCGTCCA | 0.995 ± 0.024
GACCCTAAC | 1.14 ± 0.016
GACCCTGGGT | 1.06 ± 0.033
GACCGAAAGT | 0.998 ± 0.01
GACCGAGCGT | 1.1 ± 0.06
GACCGGCGTC | 1.02 ± 0.017
GACCGGGCCC | 1.01 ± 0.015
GACGAAAATC | 1.2 ± 0.032
GACGAAGGT | 1.01 ± 0.052

Sequence | switch fluorescence ratio
GACGAATCAG | 0.97 ± 0.018
GACGACGGGT | 1.27 ± 0.041
GACGACGTGT | 1.43 ± 0.35
GACGACTTGA | 1.02 ± 0.042
GACGCACGAA | 1.58 ± 0.057
GACGCGGTTC | 5.13 ± 0.77
GACGCTAGGG | 1 ± 0.052
GACGGAGACC | 1.11 ± 0.027
GACGGAGTTG | 1.01 ± 0.026
GACGGATGTG | 0.986 ± 0.032
GACGGCGTTC | 1.008 ± 0.0058
GACGGCTGCT | 1.01 ± 0.0042
GACGGCTGGA | 1.007 ± 0.0029
GACGGCTGTA | 0.991 ± 0.015
GACGGGAAAA | 1.07 ± 0.14
GACGGGAGCT | 1.06 ± 0.021
GACGGGCAAG | 1.02 ± 0.053
GACGGGCCGT | 1.01 ± 0.021
GACGGGCGGA | 1.019 ± 0.0024
GACGGGGAGG | 0.9995 ± 0.0092
GACGGGGCGT | 0.989 ± 0.013
GACGGGGTAG | 1 ± 0.048
GACGGTCATG | 0.995 ± 0.018
GACGGTGCAT | 1.33 ± 0.084
GACGGTTGAG | 1.025 ± 0.0057

Sequence | switch fluorescence ratio
GACGGTTTAC | 1.65 ± 0.023
GACGTAACCT | 1.5 ± 0.032
GACGTAGT | 1.01 ± 0.022
GACGTATATT | 1.08 ± 0.0067
GACGTGAAGG | 1.026 ± 0.0055
GACGTGAGGA | 0.989 ± 0.024
GACGTGAGGT | 1.017 ± 0.0012
GACGTGTCAA | 1.03 ± 0.019
GACGTGTGAG | 0.993 ± 0.034
GACGTTTAAG | 0.977 ± 0.029
GACTACGGTT | 1.006 ± 0.0095
GACTATTATG | 1 ± 0.019
GACTCGGGCG | 1.014 ± 0.0082
GACTGCGGAG | 1 ± 0.026
GACTGCTTGG | 0.9518 ± 0.0063
GACTGGAAGG | 1.01 ± 0.011
GACTGGATTG | 0.996 ± 0.06
GACTGGGCAG | 1.01 ± 0.011
GACTGGGGAC | 1.01 ± 0.012
GACTGGTCGA | 0.996 ± 0.053
GACTGTCGAG | 0.991 ± 0.027
GACTTATTTT | 0.9849 ± 0.0014
GACTTGAGTT | 0.9971 ± 0.0091
GACTTGTGGG | 1.02 ± 0.084
GACTTTGGTG | 1.01 ± 0.026

Sequence | switch fluorescence ratio
GACTTTTCCT | 1.3 ± 0.41
GAGAAATACG | 1.47 ± 0.08
GAGAAATGCG | 1.03 ± 0.012
GAGAACGGTT | 1.03 ± 0.052
GAGAAGCAGT | 1 ± 0.024
GAGAAGGAGG | 1.01 ± 0.012
GAGAAGGGAT | 0.999 ± 0.022
GAGAATGAGG | 0.962 ± 0.0093
GAGAATTATG | 0.9933 ± 0.0023
GAGAATTGAA | 0.99 ± 0.014
GAGAATTTGT | 0.978 ± 0.033
GAGACAGCGC | 1.02 ± 0.062
GAGACAGGAT | 1.01 ± 0.04
GAGACATCGT | 0.986 ± 0.018
GAGACGGAAT | 1.06 ± 0.025
GAGACGGGGG | 1.02 ± 0.033
GAGACGTTGG | 0.985 ± 0.014
GAGACTTGGG | 1.03 ± 0.029
GAGAGAGGGT | 0.997 ± 0.014
GAGAGAGTGA | 0.963 ± 0.025
GAGAGATGTT | 0.999 ± 0.021
GAGAGATTTT | 0.997 ± 0.034
GAGAGCAAGT | 1.14 ± 0.034
GAGAGCGGTG | 0.9953 ± 0.0075
GAGAGGAAAT | 1.004 ± 0.0059

Sequence | switch fluorescence ratio
GAGAGGATGG | 0.984 ± 0.042
GAGAGGCACA | 1.02 ± 0.051
GAGAGGGGGT | 0.998 ± 0.05
GAGAGGGTAG | 0.9801 ± 0.0095
GAGAGGGTCA | 0.98 ± 0.025
GAGAGGTTTT | 1 ± 0.029
GAGAGTATAA | 0.99 ± 0.022
GAGAGTATGG | 0.982 ± 0.049
GAGAGTGACA | 1.01 ± 0.062
GAGAGTGGCA | 0.988 ± 0.031
GAGAGTTGTG | 0.988 ± 0.034
GAGATAGGTT | 1.03 ± 0.073
GAGATATATG | 0.983 ± 0.052
GAGATCTAGT | 1.01 ± 0.019
GAGATGAAAC | 0.976 ± 0.011
GAGATGTGGT | 0.985 ± 0.031
GAGATGTTTT | 0.988 ± 0.043
GAGATTATGG | 0.966 ± 0.022
GAGATTGAGG | 1.02 ± 0.038
GAGATTGGAA | 1.002 ± 0.0025
GAGATTTAGT | 0.973 ± 0.049
GAGCAAAAGG | 1.004 ± 0.0058
GAGCAAGGTT | 1.24 ± 0.2
GAGCAGCATT | 1.05 ± 0.014
GAGCCAGATT | 1.0095 ± 0.00059

Sequence | switch fluorescence ratio
GAGCCAGGCA | 0.974 ± 0.042
GAGCCCGCAG | 1.6 ± 0.038
GAGCCCTTAT | 0.9812 ± 0.0078
GAGCCTTATG | 0.994 ± 0.033
GAGCGAATAG | 1.46 ± 0.055
GAGCGGGTAC | 1.41 ± 0.03
GAGCGGGTTG | 0.9835 ± 0.0056
GAGCGTAAGT | 0.958 ± 0.03
GAGCTAACGG | 1.011 ± 0.0073
GAGCTAAGCT | 0.981 ± 0.018
GAGCTAAGGA | 0.981 ± 0.029
GAGCTGGAGG | 1 ± 0.017
GAGCTTCTAG | 1.03 ± 0.015
GAGCTTGCTG | 0.9992 ± 0.0083
GAGGAACCGG | 1.05 ± 0.021
GAGGAAGGGG | 1 ± 0.016
GAGGAATCGA | 1.04 ± 0.065
GAGGAATTTA | 1.02 ± 0.028
GAGGAGCGTT | 0.9804 ± 0.007
GAGGAGGATG | 0.987 ± 0.013
GAGGAGGGAC | 0.989 ± 0.05
GAGGAGGGTA | 0.966 ± 0.086
GAGGAGTAGG | 1.08 ± 0.036
GAGGAGTGGT | 0.984 ± 0.015
GAGGATTTAA | 1 ± 0.03

Sequence | switch fluorescence ratio
GAGGCAAGG | 1.341 ± 0.0038
GAGGCAGTTA | 1.11 ± 0.046
GAGGCATTGC | 1.65 ± 0.24
GAGGCCCATT | 1 ± 0.043
GAGGCCGATT | 1.02 ± 0.011
GAGGCGACGT | 0.963 ± 0.027
GAGGCGGAGG | 1 ± 0.028
GAGGCGGCAT | 1.04 ± 0.0066
GAGGCGGCGG | 1.067 ± 0.0051
GAGGCGGTGG | 1.009 ± 0.005
GAGGCTGGGA | 0.988 ± 0.032
GAGGCTGGGC | 0.973 ± 0.053
GAGGCTTCTA | 1.02 ± 0.036
GAGGGAAGAG | 1.01 ± 0.021
GAGGGAAGGG | 0.994 ± 0.011
GAGGGAGGGA | 1.03 ± 0.059
GAGGGAGTCG | 1.01 ± 0.022
GAGGGAGTTT | 0.987 ± 0.025
GAGGGCGCTG | 0.973 ± 0.011
GAGGGCTAGG | 0.997 ± 0.023
GAGGGCTTGG | 1.05 ± 0.016
GAGGGGAACC | 0.992 ± 0.032
GAGGGGAGCG | 0.969 ± 0.043
GAGGGGATAG | 1.03 ± 0.046
GAGGGGATGT | 0.978 ± 0.026

Sequence | switch fluorescence ratio
GAGGGGCCGA | 0.973 ± 0.016
GAGGGGCGCG | 0.997 ± 0.065
GAGGGGCTTT | 0.982 ± 0.018
GAGGGGGCAC | 1.03 ± 0.042
GAGGGGGCGC | 1.02 ± 0.031
GAGGGGGCGG | 0.999 ± 0.025
GAGGGGGCGT | 1.01 ± 0.04
GAGGGGGCTA | 1.02 ± 0.029
GAGGGGGGAC | 1.02 ± 0.032
GAGGGGGGCA | 0.977 ± 0.03
GAGGGGGGGC | 1.01 ± 0.07
GAGGGGTCCA | 0.974 ± 0.021
GAGGGGTGCG | 1.01 ± 0.025
GAGGGGTTGG | 0.964 ± 0.033
GAGGGGTTGT | 1.03 ± 0.013
GAGGGTACGG | 1.037 ± 0.0092
GAGGGTATCG | 0.984 ± 0.039
GAGGGTCAAA | 1.004 ± 0.01
GAGGGTCATC | 0.935 ± 0.056
GAGGGTGAGT | 0.9809 ± 0.0054
GAGGGTGCGG | 1.01 ± 0.027
GAGGGTGGGC | 1.03 ± 0.09
GAGGGTGTAG | 0.988 ± 0.018
GAGGGTGTGG | 1.02 ± 0.022
GAGGGTTAGT | 0.9866 ± 0.0066
